In paper PMC6863848, “Selection of an optimal macrocyclic chelator improves the imaging of prostate cancer using cobalt-labeled GRPR antagonist RM26” (Scientific Reports, 2019):

Legend:
[1] = Ex vivo biodistribution and tumor targeting; settings: female, BALB/c nu/nu, mouse, iv, 45 pmol per mouse, total radioactivity
Protocol: (§1) Euthanasia was performed by intraperitoneal injection of Ketalar-Rompun solution (10 mg/mL Ketalar and 1 mg/mL Rompun; 20 µL/g body weight) and all efforts were made to minimize suffering. Groups of 4 mice per data point were used.
(§2) Blood samples were collected by heart puncture. Lung, liver, spleen, pancreas, stomach, small intestines, kidneys, muscle, bone, and the rest of gastrointestinal tract with its content were collected, weighed and measured in a gamma-counter. The organ uptake values were expressed as a percentage of injected dose per gram of tissue weight (%ID/g) with the exception of gastrointestinal tract and the remaining carcass, which were calculated as %ID per whole sample.
(§3) The biodistribution and targeting properties of ^57Co-X-PEG2-RM26 were evaluated in female BALB/c nu/nu mice (weight: 18 ± 2 g). GRPR-expressing xenografts were established by subcutaneous injection of 8 × 10^6 PC-3 cells/mouse, 2 weeks prior to the experiment. At the time of experiment, the mice were intravenously injected with ^57Co-X-PEG2-RM26 (25 kBq, 45 pmol in 100 µL PBS per mouse) and were euthanized 3 and 24 h pi.

[2] = system: PC-3 xenografted BALB/c nu/nu mice; assay: Ex vivo biodistribution and tumor targeting; settings: 24 h pi
Protocol: as §1, §2, §3

in vivo = settings: female, BALB/c nu/nu, mouse, iv, 45 pmol per mouse, total radioactivity
Protocol: as §1, §2, §3

NMRI mice = settings: 25 kBq, 3 and 24 h pi
Protocol: as §2

[3] = blood, Blood uptake, PC-3-xenografted BALB/c nu/nu mice, iv 25 kBq/45 pmol, 3 h pi, 4 mice per data point
[4] = blood, Blood uptake, PC-3-xenografted BALB/c nu/nu mice, iv 25 kBq/45 pmol, 24 h pi, 4 mice per data point
[5] = bone, Bone uptake, PC-3-xenografted BALB/c nu/nu mice, iv 25 kBq/45 pmol, 3 h pi, 4 mice per data point
[6] = bone, Bone uptake, PC-3-xenografted BALB/c nu/nu mice, iv 25 kBq/45 pmol, 24 h pi, 4 mice per data point
[7] = gastrointestinal tract with content (whole sample)
[8] = kidneys, Kidneys uptake, PC-3-xenografted BALB/c nu/nu mice, iv 25 kBq/45 pmol, 3 h pi, 4 mice per data point
[9] = kidneys, Kidneys uptake, PC-3-xenografted BALB/c nu/nu mice, iv 25 kBq/45 pmol, 24 h pi, 4 mice per data point
[10] = liver, Liver uptake, PC-3-xenografted BALB/c nu/nu mice, iv 25 kBq/45 pmol, 3 h pi, 4 mice per data point
[11] = liver, Liver uptake, PC-3-xenografted BALB/c nu/nu mice, iv 25 kBq/45 pmol, 24 h pi, 4 mice per data point
[12] = lung, Lung uptake, PC-3-xenografted BALB/c nu/nu mice, iv 25 kBq/45 pmol, 3 h pi, 4 mice per data point
[13] = lung, Lung uptake, PC-3-xenografted BALB/c nu/nu mice, iv 25 kBq/45 pmol, 24 h pi, 4 mice per data point
[14] = muscle, Muscle uptake, PC-3-xenografted BALB/c nu/nu mice, iv 25 kBq/45 pmol, 3 h pi, 4 mice per data point
[15] = muscle, Muscle uptake, PC-3-xenografted BALB/c nu/nu mice, iv 25 kBq/45 pmol, 24 h pi, 4 mice per data point
[16] = pancreas, Pancreas uptake, PC-3-xenografted BALB/c nu/nu mice, iv 25 kBq/45 pmol, 3 h pi, 4 mice per data point
[17] = pancreas, Pancreas uptake, PC-3-xenografted BALB/c nu/nu mice, iv 25 kBq/45 pmol, 24 h pi, 4 mice per data point
[18] = remaining carcass (whole sample)
[19] = small intestine, Sm. Int. uptake, PC-3-xenografted BALB/c nu/nu mice, iv 25 kBq/45 pmol, 3 h pi, 4 mice per data point
[20] = small intestine, Sm. Int. uptake, PC-3-xenografted BALB/c nu/nu mice, iv 25 kBq/45 pmol, 24 h pi, 4 mice per data point
[21] = spleen, Spleen uptake, PC-3-xenografted BALB/c nu/nu mice, iv 25 kBq/45 pmol, 3 h pi, 4 mice per data point
[22] = spleen, Spleen uptake, PC-3-xenografted BALB/c nu/nu mice, iv 25 kBq/45 pmol, 24 h pi, 4 mice per data point
[23] = stomach, Stomach uptake, PC-3-xenografted BALB/c nu/nu mice, iv 25 kBq/45 pmol, 3 h pi, 4 mice per data point
[24] = stomach, Stomach uptake, PC-3-xenografted BALB/c nu/nu mice, iv 25 kBq/45 pmol, 24 h pi, 4 mice per data point
[25] = tumor, Tumor uptake, PC-3-xenografted BALB/c nu/nu mice, iv 25 kBq/45 pmol, 3 h pi, 4 mice per data point
[26] = tumor, Tumor uptake, PC-3-xenografted BALB/c nu/nu mice, iv 25 kBq/45 pmol, 24 h pi, 4 mice per data point

SMILES	tissue uptake at 3 h [1, 3]	tissue uptake at 24 h [1, 4]	tissue uptake at 3 h [1, 5]	tissue uptake at 24 h [1, 6]	tissue uptake dose at 3 h [1, 7]	tissue uptake dose at 24 h [1, 7]	tissue uptake at 3 h [1, 8]	tissue uptake at 3 h [1, 10]	tissue uptake at 24 h [1, 11]	tissue uptake at 3 h [1, 12]	tissue uptake at 24 h [1, 13]	tissue uptake at 24 h [1, 15]	tissue uptake at 24 h [1, 17]	tissue uptake dose at 3 h [1, 18]	tissue uptake dose at 24 h [1, 18]	tissue uptake at 3 h [1, 19]	tissue uptake at 24 h [1, 22]	tissue uptake at 3 h [1, 23]	tissue uptake at 3 h [1, 25]	tissue uptake at 24 h [1, 26]	also measured
CC(C)C[C@H](NC(=O)C[C@H](O)[C@H](CC(C)C)NC(=O)[C@H](Cc1c[nH]cn1)NC(=O)CNC(=O)[C@@H](NC(=O)[C@H](C)NC(=O)[C@H](Cc1c[nH]c2ccccc12)NC(=O)[C@H](CCC(N)=O)NC(=O)[C@@H](Cc1ccccc1)NC(=O)COCCOCCNC(=O)CCC(C(=O)O)N1CCN(CC(=O)O)CCN(CC(=O)O)CCN(CC(=O)O)CC1)C(C)C)C(N)=O (stereo partly drawn) [DOTAGA]	0.02 ± 0.01 %ID/g	0.005 ± 0.002 %ID/g	0.02 ± 0.005 %ID/g	0.02 ± 0.03 %ID/g	1 ± 0.5 %ID	0.1 ± 0.1 %ID	3.5 ± 0.4 %ID/g	0.08 ± 0.02 %ID/g	0.04 ± 0.01 %ID/g	0.07 ± 0.03 %ID/g	0.02 ± 0.02 %ID/g	0.007 ± 0.007 %ID/g	0.028 ± 0.009 %ID/g	1.9 ± 0.9 %ID	0.3 ± 0.3 %ID	0.13 ± 0.05 %ID/g	0.016 ± 0.009 %ID/g	0.4 ± 0.3 %ID/g	6.9 ± 2.7 %ID/g	2.3 ± 0.7 %ID/g	tissue uptake at 24 h [1, 9]: 1.8 ± 0.5 %ID/g; tissue uptake at 3 h [1, 14]: 0.04 ± 0.01 %ID/g; tissue uptake at 3 h [1, 16]: 0.4 ± 0.1 %ID/g; tissue uptake at 24 h [1, 20]: 0.02 ± 0.01 %ID/g; tissue uptake at 3 h [1, 21]: 0.08 ± 0.05 %ID/g; tissue uptake at 24 h [1, 24]: 0.018 ± 0.004 %ID/g; Kidney uptake, higher compared to NODAGA- and DOTA-containing analogues [2]: twofold higher
CC(C)C[C@H](NC(=O)C[C@H](O)[C@H](CC(C)C)NC(=O)[C@H](Cc1c[nH]cn1)NC(=O)CNC(=O)[C@@H](NC(=O)[C@H](C)NC(=O)[C@H](Cc1c[nH]c2ccccc12)NC(=O)[C@H](CCC(N)=O)NC(=O)[C@@H](Cc1ccccc1)NC(=O)COCCOCCNC(=O)CN1CCN(CC(=O)O)CCN(CC(=O)O)CCN(CC(=O)O)CC1)C(C)C)C(N)=O [DOTA]	0.028 ± 0.006 %ID/g	0.007 ± 0.002 %ID/g	0.08 ± 0.03 %ID/g	0.09 ± 0.06 %ID/g	4.8 ± 0.1 %ID	0.21 ± 0.09 %ID	1.9 ± 0.3 %ID/g	0.078 ± 0.009 %ID/g	0.034 ± 0.003 %ID/g	0.06 ± 0.01 %ID/g	0.023 ± 0.004 %ID/g	0.02 ± 0.01 %ID/g	0.05 ± 0.01 %ID/g	0.9 ± 0.4 %ID	0.2 ± 0.1 %ID	0.9 ± 0.1 %ID/g	0.035 ± 0.006 %ID/g	2.1 ± 0.6 %ID/g	8.1 ± 0.6 %ID/g	4.4 ± 1.3 %ID/g	tissue uptake dose at 3 h ([1]; gastrointestinal tract with contents): 5 %ID; tissue uptake at 24 h ([1]; kidneys): 0.8 ± 0.2 %ID/g; tissue uptake at 3 h ([1]; muscle): 0.4 ± 0.7 %ID/g; tissue uptake at 3 h [1, 16]: 2.5 ± 0.8 %ID/g; tissue uptake at 24 h [1, 20]: 0.06 ± 0.02 %ID/g; tissue uptake at 3 h [1, 21]: 0.09 ± 0.02 %ID/g; tissue uptake at 24 h [1, 24]: 0.06 ± 0.02 %ID/g; Tumor radioactivity, higher than other conjugates [2]: twofold higher
CC(C)C[C@H](NC(=O)C[C@H](O)[C@H](CC(C)C)NC(=O)[C@H](Cc1c[nH]cn1)NC(=O)CNC(=O)[C@@H](NC(=O)[C@H](C)NC(=O)[C@H](Cc1c[nH]c2ccccc12)NC(=O)[C@H](CCC(N)=O)NC(=O)[C@@H](Cc1ccccc1)NC(=O)COCCOCCNC(=O)CCC(C(=O)O)N1CCN(CC(=O)O)CCN(CC(=O)O)CC1)C(C)C)C(N)=O (stereo partly drawn) [NODAGA]	0.032 ± 0.009 %ID/g	0.006 ± 0.003 %ID/g	0.1 ± 0.2 %ID/g	0.007 ± 0.002 %ID/g	5 ± 1 %ID	0.3 ± 0.2 %ID	2.5 ± 0.8 %ID/g	0.08 ± 0.02 %ID/g	0.02 ± 0.01 %ID/g	0.05 ± 0.01 %ID/g	0.02 ± 0.01 %ID/g	0.006 ± 0.005 %ID/g	0.02 ± 0.03 %ID/g	1.3 ± 0.3 %ID	0.1 ± 0.1 %ID	0.3 ± 0.3 %ID/g	0.009 ± 0.002 %ID/g	0.39 ± 0.09 %ID/g	6.3 ± 1.2 %ID/g	2.3 ± 0.9 %ID/g	tissue uptake at 24 h [1, 9]: 0.7 ± 0.4 %ID/g; tissue uptake at 3 h [1, 14]: 0.02 ± 0.01 %ID/g; tissue uptake at 3 h [1, 16]: 0.3 ± 0.2 %ID/g; tissue uptake at 24 h [1, 20]: 0.015 ± 0.007 %ID/g; tissue uptake at 3 h [1, 21]: 0.05 ± 0.02 %ID/g; tissue uptake at 24 h [1, 24]: 0.04 ± 0.01 %ID/g
CC(C)C[C@H](NC(=O)C[C@H](O)[C@H](CC(C)C)NC(=O)[C@H](Cc1c[nH]cn1)NC(=O)CNC(=O)[C@@H](NC(=O)[C@H](C)NC(=O)[C@H](Cc1c[nH]c2ccccc12)NC(=O)[C@H](CCC(N)=O)NC(=O)[C@@H](Cc1ccccc1)NC(=O)COCCOCCNC(=O)CN1CCN(CC(=O)O)CCN(CC(=O)O)CC1)C(C)C)C(N)=O [NOTA]	0.019 ± 0.004 %ID/g	0.006 ± 0.001 %ID/g	0.04 ± 0.04 %ID/g	–	0.6 ± 0.1 %ID	0.09 ± 0.03 %ID	0.93 ± 0.05 %ID/g	–	0.025 ± 0.005 %ID/g	0.065 ± 0.005 %ID/g	0.09 ± 0.15 %ID/g	0.011 ± 0.005 %ID/g	0.023 ± 0.002 %ID/g	0.6 ± 0.4 %ID	0.18 ± 0.06 %ID	0.098 ± 0.028 %ID/g	0.029 ± 0.004 %ID/g	0.3 ± 0.1 %ID/g	7.3 ± 1.3 %ID/g	2.1 ± 0.2 %ID/g	tissue uptake at 24 h (in vivo; Bone uptake): 0.08 ± 0.05 %ID/g; tissue uptake at 24 h (in vivo; Kidneys uptake): 0.09 ± 0.03 %ID/g; tissue uptake at 3 h (in vivo; Liver uptake): 0.07 ± 0.004 %ID/g; tissue uptake at 3 h (in vivo; Pancreas uptake): 0.21 ± 0.052 %ID/g; tissue uptake at 24 h (in vivo; Sm. Int. uptake): 0.06 ± 0.03 %ID/g; tissue uptake at 3 h (in vivo; Spleen uptake): 0.05 ± 0.008 %ID/g; tissue uptake at 24 h (in vivo; Stomach uptake): 0.05 ± 0.03 %ID/g; tissue uptake at 3 h [1, 14]: 0.08 ± 0.1 %ID/g
[57Co+2].[Cl-].[Cl-] [free cobalt, cobalt-57 chloride]	–	–	–	–	–	–	–	–	–	–	–	–	–	–	–	–	–	–	–	–	Biodistribution pattern (NMRI mice): Uniform activity distribution
